Source: article PMC8667049

T1: GST-IRP2 (Homo sapiens, UniProt P48200 1-963)
T1 sequence: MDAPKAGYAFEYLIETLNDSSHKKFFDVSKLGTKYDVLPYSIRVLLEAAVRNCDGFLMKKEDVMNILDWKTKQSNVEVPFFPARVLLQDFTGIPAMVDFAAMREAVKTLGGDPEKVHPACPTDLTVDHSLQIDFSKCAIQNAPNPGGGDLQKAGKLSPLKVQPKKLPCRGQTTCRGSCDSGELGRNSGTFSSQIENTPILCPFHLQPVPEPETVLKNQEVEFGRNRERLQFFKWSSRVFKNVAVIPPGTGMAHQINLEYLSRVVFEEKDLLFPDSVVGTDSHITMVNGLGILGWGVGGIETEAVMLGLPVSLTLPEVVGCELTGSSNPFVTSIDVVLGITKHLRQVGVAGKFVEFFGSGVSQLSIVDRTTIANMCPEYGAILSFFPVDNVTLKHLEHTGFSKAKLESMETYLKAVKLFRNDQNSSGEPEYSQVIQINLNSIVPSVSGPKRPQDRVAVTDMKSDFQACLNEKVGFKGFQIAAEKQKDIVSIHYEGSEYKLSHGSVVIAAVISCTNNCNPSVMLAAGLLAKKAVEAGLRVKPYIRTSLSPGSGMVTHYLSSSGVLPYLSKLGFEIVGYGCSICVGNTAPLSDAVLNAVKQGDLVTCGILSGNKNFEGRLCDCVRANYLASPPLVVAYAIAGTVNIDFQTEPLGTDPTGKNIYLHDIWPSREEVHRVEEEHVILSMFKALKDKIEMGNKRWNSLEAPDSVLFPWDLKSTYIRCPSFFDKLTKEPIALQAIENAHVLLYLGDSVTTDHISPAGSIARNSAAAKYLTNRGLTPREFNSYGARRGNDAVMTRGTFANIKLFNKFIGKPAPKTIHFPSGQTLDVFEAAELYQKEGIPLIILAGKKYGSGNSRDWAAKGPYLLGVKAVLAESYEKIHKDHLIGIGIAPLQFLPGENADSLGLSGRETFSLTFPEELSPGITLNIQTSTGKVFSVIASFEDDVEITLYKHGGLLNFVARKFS

T2: GST-IRP1 (Homo sapiens, UniProt P21399 1-889)
T2 sequence: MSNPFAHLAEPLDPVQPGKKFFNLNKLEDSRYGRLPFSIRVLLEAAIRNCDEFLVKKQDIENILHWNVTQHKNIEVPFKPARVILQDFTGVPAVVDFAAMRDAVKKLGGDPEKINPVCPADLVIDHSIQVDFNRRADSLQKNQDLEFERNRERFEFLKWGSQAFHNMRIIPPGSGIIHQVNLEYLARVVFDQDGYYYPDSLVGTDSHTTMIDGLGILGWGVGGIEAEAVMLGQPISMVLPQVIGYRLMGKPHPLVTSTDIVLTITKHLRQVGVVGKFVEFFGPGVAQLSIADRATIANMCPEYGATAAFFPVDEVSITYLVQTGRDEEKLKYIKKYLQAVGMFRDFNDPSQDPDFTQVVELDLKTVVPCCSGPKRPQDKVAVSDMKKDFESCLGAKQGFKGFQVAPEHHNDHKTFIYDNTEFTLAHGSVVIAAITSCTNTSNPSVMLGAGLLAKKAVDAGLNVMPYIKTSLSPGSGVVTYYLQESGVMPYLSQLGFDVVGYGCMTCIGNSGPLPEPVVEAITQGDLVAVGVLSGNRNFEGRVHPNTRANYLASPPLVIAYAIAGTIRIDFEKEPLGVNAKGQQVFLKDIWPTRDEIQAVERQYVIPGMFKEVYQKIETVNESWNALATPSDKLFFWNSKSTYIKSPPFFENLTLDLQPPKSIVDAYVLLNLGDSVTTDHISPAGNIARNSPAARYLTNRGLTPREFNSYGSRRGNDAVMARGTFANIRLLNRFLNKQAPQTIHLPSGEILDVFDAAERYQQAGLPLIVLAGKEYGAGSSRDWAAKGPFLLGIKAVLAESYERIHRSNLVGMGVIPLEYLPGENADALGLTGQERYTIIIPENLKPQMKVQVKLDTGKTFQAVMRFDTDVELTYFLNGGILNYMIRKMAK

B1: non-IRE control RNA (ssRNA)
RNA: CCUGGUUUUUAAGGAGUGUCGCCAGAGUGCCGCGAAUGAAAAA
B2: CD63 5' UTR IRE (structured_RNA)
RNA: GAGGGGGCUUGCACAGAGUUGGAGCCAGAGG

Key:
GST-IRP2 = molecular target: T1, GST-IRP2; test: EMSA
GST-IRP1 = molecular target: T2, GST-IRP1; test: EMSA

Row | Binder | binding result (GST-IRP2) | binding result (GST-IRP1)
1 | B1 | no binding | no binding
2 | B2 | binds | binds
